Data: article PMC4478348

Target: LARP4B (UniProt Q92615 1-738)
Test: EMSA

Chain of LARP4B (Q92615 whole entry): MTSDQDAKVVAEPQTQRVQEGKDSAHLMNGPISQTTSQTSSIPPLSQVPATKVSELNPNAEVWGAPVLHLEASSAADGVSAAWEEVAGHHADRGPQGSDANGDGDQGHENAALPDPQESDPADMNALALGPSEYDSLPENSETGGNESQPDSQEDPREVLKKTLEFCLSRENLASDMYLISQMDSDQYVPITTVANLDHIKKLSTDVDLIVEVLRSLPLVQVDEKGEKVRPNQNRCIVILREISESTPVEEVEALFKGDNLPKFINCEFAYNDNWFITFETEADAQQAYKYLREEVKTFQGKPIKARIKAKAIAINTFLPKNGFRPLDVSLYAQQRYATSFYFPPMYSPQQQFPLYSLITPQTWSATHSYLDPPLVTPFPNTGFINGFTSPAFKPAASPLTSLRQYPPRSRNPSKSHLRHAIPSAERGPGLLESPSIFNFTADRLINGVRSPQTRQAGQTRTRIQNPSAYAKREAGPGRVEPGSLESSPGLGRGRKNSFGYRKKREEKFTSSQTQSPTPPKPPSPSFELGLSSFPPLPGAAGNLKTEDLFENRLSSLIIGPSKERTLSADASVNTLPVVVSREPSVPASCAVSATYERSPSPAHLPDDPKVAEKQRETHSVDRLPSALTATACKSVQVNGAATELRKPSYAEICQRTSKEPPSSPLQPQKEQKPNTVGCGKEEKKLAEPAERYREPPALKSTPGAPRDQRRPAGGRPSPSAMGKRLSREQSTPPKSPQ

B1: CKB (ssRNA)
RNA: GUAGAGACUUCCGUCACGCUUGGUAGAGUUUAUUUUUUUGA
Kd: ~200 nM

B2: CKB del (ssRNA)
RNA: GUAGAGACUUCCGUCACGCUUGGUAGAGGA
binding result: no binding
